# B1: Top1-HA (enzyme)
# chain: MSGDHLHNDSQIEADFRLNDSHKHKDKHKDREHRHKEHKKDKDKDREKSKHSNSEHKDSEKKHKEKEKTKHKDGSSEKHKDKHKDRDKERRKEEKIRAAGDAKIKKEKENGFSSPPRIKDEPEDDGYFAPPKEDIKPLKRLRDEDDADYKPKKIKTEDIKKEKKRKSEEEEDGKLKKPKNKDKDKKVAEPDNKKKKPKKEEEQKWKWWEEERYPEGIKWKFLEHKGPVFAPPYEPLPESVKFYYDGKVMKLSPKAEEVATFFAKMLDHEYTTKEIFRKNFFKDWRKEMTNDEKNTITNLSKCDFTQMSQYFKAQSEARKQMSKEEKLKIKEENEKLLKEYGFCVMDNHRERIANFKIEPPGLFRGRGNHPKMGMLKRRIMPEDIIINCSKDAKVPSPPPGHKWKEVRHDNKVTWLVSWTENIQGSIKYIMLNPSSRIKGEKDWQKYETARRLKKCVDKIRNQYREDWKSKEMKVRQRAVALYFIDKLALRAGNEKEEGETADTVGCCSLRVEHINLHPELDGQEYVVEFDFPGKDSIRYYNKVPVEKRVFKNLQLFMENKQPEDDLFDRLNTGILNKHLQDLMEGLTAKVFRTYNASITLQQQLKELTAPDENVPAKILSYNRANRAVAILCNHQRAPPKTFEKSMMNLQSKIDAKKDQLADARRDLKSAKADAKVMKDAKTKKVVESKKKAVQRLEEQLMKLEVQATDREENKQIALGTSKLNYLDPRITVAWCKKWGVPIEKIYNKTQREKFAWAIDMTDEDYEF
# Target: L1-70-Myc
# Experiment: ELISA; purified L1-70-Myc coated in PBS on 96-well plates; purified Top1-HA at 0.1, 0.5, 1, 5 and 10 nM, 2 h at 37 °C; detection with rabbit anti-HA, TMB
binder,measurement,value
B1,concentration of Top1-HA at saturation,1 nM

# Reference: paper PMC8748658
